Assay: yeast display, Sf9 membrane polyspecificity reagent, FACS + sequencing; frameworks hold sequencing errors
How it was run: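 Galactose induction of a Saccharomyces cerevisiae BJ5465 synthetic nanobody display library ran 36–48 hours. The cells were then stained for 1 hour at 4 °C with 10% biotinylated, detergent-solubilized Sf9 membrane reagent, pulled down on streptavidin microbeads and FACS-sorted into low and high (top ~1%) gates on expression and reagent-binding fluorescence. Labels for polyreactivity follow the gate of origin.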

| Sequence | polyreactivity (PSR sort gate) |
| --- | --- |
| QVQLVESGGGLVQAGGSLRLSCAASGSIFGDYAMGWYRQAPGKERELVAGITQSGSSTYYADSVKGRFTISRDNAKNTVYLQMNSLKPEDTAVYYCNKDWGPGPNEFDYWGQGTQVTVSS | low polyreactivity |
| QVQLVESGGGLVQAGGSLRLSCAASGSIFGENAMGWYRQAPGKERELVAAITSGGSTDYADSVKGRFTISRDNAKNTVYLQMNSLKPEDTAVYYCAASGRVGPGYWYDSWGQGTQVTVSS | low polyreactivity |
| QVQLVESGGGLVQAGGSLRLSCAASGSIFGEYVRGWYREAPGKERELVADISWRDGDTYYADSEKGRFTISRDNAKNTVYLQMNSLKPEDTAVYYCAADVIVPESYGYWPLSYYYWGQGTQVTVSS | low polyreactivity |
| QVQLVESGGGLVQAGGSLRLSCAASGSIFGFNALGWYRQAPGKERELVASITWSGSSTYYADSVKGRFTISRDNAKNTVYLQMNSLKPEDTAVYYCAKEFVHTHFYLWHVFKYGYWGQGTQVTVSS | low polyreactivity |
| QVQLVESGGGLVQAGGSLRLSCAASGSIFGFNTMGWYRQAPGKEMELVATINWSGGSTYYADSVKGRFTISRDNAKNTVYLQMNSLKPEDTAVYYCNAGPFSGRLFTTYASWGRYDYWGQGTQVTVSS | low polyreactivity |
| QVQLVESGGGLVQAGGSLRLSCAASGSIFGFYMGWYRQAPGKERELVAAISGSGGNTYYADSVKGRFTISRDNAKNTVYLQMNSLKPEDTAVYYCAVRYPGSRYLISKNGYWGQGTQVTVSS | high polyreactivity |
| QVQLVESGGGLVQAGGSLRLSCAASGSIFGGNAMGWYRQAPGKEREFVARITKRGGSTDYADSVKGRFTISRDNAKNTVYLQMNSLKPEDTAVYYCATGWTSKVHYRYGYWGQGTQVTVSS | high polyreactivity |
| QVQLVESGGGLVQAGGSLRLSCAASGSIFGGNAMGWYRQAPGKERELVAAITYSGGSTYYADSVKGRFTISRDNAKNTVYLQMNSLKPEDTAVYYCAASASVRGGGADQYVIAFDYWGQGTQVTVSS | low polyreactivity |
| QVQLVESGGGLVQAGGSLRLSCAASGSIFGGNAMGWYRQAPGKERELVATITVRGGSTYYADSVKGRFTISRDNAKHTVYLQMNSLKPEDTAVYYCAARGGYLLPKYDYWGQGTQVTVSS | low polyreactivity |
| QVQLVESGGGLVQAGGSLRLSCAASGSIFGGNDMGWYRQAPGKERELVAAITSSGGSTYYADSVKGRFTISRDNAKNTVYLQMNSLKPEDTAVYYCYADYYGPYRDYGYWGQGTQVTVSS | low polyreactivity |
| QVQLVESGGGLVQAGGSLRLSCAASGSIFGGYAMGWYRQAPGKEGELVAAISWSSSSTYYADSVKGRFTMSRDNAKNTVYLQMNSLKPEDTAVYYCATGIYPQTSDYDYWGQGTQVTVSS | low polyreactivity |
| QVQLVESGGGLVQAGGSLRLSCAASGSIFGGYAMGWYRQAPGKERELVAAITWGGGSTYYADSVKGRFTISRDNAKNTVYLQMNSLKPEDTAVYYCAADRSWYDWEDDYWGQGTQVTVSS | low polyreactivity |
| QVQLVESGGGLVQAGGSLRLSCAASGSIFGGYAMGWYRQAPGKERELVARIRGSTGSTYYADSVKGRFTISRDNAKNTVYFQMNSLKPEDTAVYYCNARYKYYRGSGMDSWGQGTQVTVSS | high polyreactivity |
| QVQLVESGGGLVQAGGSLRLSCAASGSIFGGYAMGWYRQAPGKERELVATINLGGGSTYADSVKGRFTISRDNAKNTVYLQMNSLKPEDTAVYYCAADVANSIYDYWGQGTQVTVSS | low polyreactivity |
| QVQLVESGGGLVQAGGSLRLSCAASGSIFGGYAMGWYRQAPGKERELVATSYADSVKGRFTISRDNAKNTVYLQMNSLKPEDTAVYYCAADPPLEGGHGYNYWGQGTQVTVSS | low polyreactivity |
| QVQLVESGGGLVQAGGSLRLSCAASGSIFGGYGLGWYRQAPGKERELVAASTSGSSTYYADSVKGRFTISRDNAKNTVYFPMNSLKPEDTAVSYFAARPFPHSAYEGDYWGRGTQVTVSS | low polyreactivity |
| QVQLVESGGGLVQAGGSLRLSCAASGSIFGGYTKGWYRQAPWKERELVAAISRRGGNTYYADSVKGRFTISRDNAQITVYLQMNSLKPEDTAVYYCAVLWPSARIPVKLDYWGQGTQVTVSS | high polyreactivity |
| QVQLVESGGGLVQAGGSLRLSCAASGSIFGHNAMGWYRQAPGKERELVAAITSTGGSTYYADSVKGRFTISRDNAKNTVYLQMNSLKPEDTAVYYCAKGWYAGYPYDYWGQGTQVTVSS | low polyreactivity |
| QVQLVESGGGLVQAGGSLRLSCAASGSIFGINAMGWYRQAPGKERELVAGISSRGGSTYYADSVKGRFTISRDNAKNTVYLQMNSLKPEDTAVYYCAKRYGRRYGRLHDYWGQGTQVTVSS | high polyreactivity |
| QVQLVESGGGLVQAGGSLRLSCAASGSIFGINVMGWYRHAPGKDREFVAAITSGTSTYYADSVKGRFTISRDNAKNSVYLQMNSLKPEDTAVYYCAALWSSRFVVHPQWYDYWGQGTQVTVSS | low polyreactivity |
| QVQLVESGGGLVQAGGSLRLSCAASGSIFGINVMGWYRQAPGKERELVAAITSGTSTYYADSVKGLFTISRDNANNTVYLQMNSLKPEDTAVYYCAALWSSRFVVHPQWYDYWGQGTQVTVSS | low polyreactivity |
| QVQLVESGGGLVQAGGSLRLSCAASGSIFGIYAMGWYRQAPGKERELVAAISRGGSTYYADSVKGRFTISRDNAKNTVYLQMNSLKPEDTAVYYCNAKLIVTPGRGDYWGQGTQVTVSS | high polyreactivity |

| Sequence | polyreactivity (PSR sort gate) |
| --- | --- |
| QVQLVESGGGLVQAGGSLRLSCAASGSIFGIYTMGWYRQAPGKERELVAAINSGGSTNYADSVKGRFTISRDNAKNTVYLQMNSLKPEDTAVYYCNAYIHPPGPRVYSREYDYWGHGTQVTVSS | low polyreactivity |
| QVQLVESGGGLVQAGGSLRLSCAASGSIFGIYVMGWYRQAPGKERELVAAISDGGSTYYADSVKGRFTISRDNAKNTVYLQMNSLKPEDTAVYYCAAEVHGWYSYYYWGQGTQVTVSS | high polyreactivity |
| QVQLVESGGGLVQAGGSLRLSCAASGSIFGKNVMGWYRQAPGKDRELVAAITSGASTYYADSVKGRFTISRDNAKNTDYLQMNSLKPDDTAVYYCAARRWRKYYSGYNYWGHGTQVTVSS | high polyreactivity |
| QVQLVESGGGLVQAGGSLRLSCAASGSIFGKYAMGWYRQAPGKERELVAAITWSGGSTRYADSVKGRFTISRDNAKNTVYLQMNSLKPEDTAVYYCAAPSTESKYYYWGQGTQVTVSS | high polyreactivity |
| QVQLVESGGGLVQAGGSLRLSCAASGSIFGLNAMGWSRPAPGKERELVAAISGGSTNYADSVKGRFTISRDNAKNTVYLQMNSLKPEDTAVYYCAARARRRYYYWGQGTQVTVSS | high polyreactivity |
| QVQLVESGGGLVQAGGSLRLSCAASGSIFGLNGMGWYIQAPGKERELVASISASGGSTYYADSVKGRFTISRDNAKNTVYLQMNSLKPEDTAVYYCAARVVYGAGLSSSGPKQYTRRFYYWGQGTQVTVSS | high polyreactivity |
| QVQLVESGGGLVQAGGSLRLSCAASGSIFGLYAMGCYRQAPGKERELVAAITWSSGNTYYADSVKGRFTISRDNAKNTVYLQMNSLKPEDTAVYYCAAEQIYFVYWEDDYWGQGTQVTVSS | high polyreactivity |
| QVQLVESGGGLVQAGGSLRLSCAASGSIFGLYAMGWSRQAPGKERELVASITGGGGTYYADSVKGRFTISRDNAKNTVYLQMNSLKPEDTAVYYCAAALYFGGDSYYYWGQGTQVTVSS | low polyreactivity |
| QVQLVESGGGLVQAGGSLRLSCAASGSIFGLYAMGWYRQAPGKERELVAAINQSGGSTSYADSVKGRFTISRDTAKNTVYLQMNSLKPEDTAVYYCAVAIVTSGPFPRDYWGQGTQVTVSS | low polyreactivity |
| QVQLVESGGGLVQAGGSLRLSCAASGSIFGLYAMGWYRQAPGKERELVAAINWNGGDTYYADSVKGRFTISRDYAKNTVYLQMNSLKPEDTAVYYCAAEQYRYGIRRRHYDYWGQGTEVTVSS | low polyreactivity |
| QVQLVESGGGLVQAGGSLRLSCAASGSIFGLYAMGWYRQAPGKERELVAAITASDGSTYYADSVKGRFTISRDNAKNTVYLQMNSLKPEDTADYYCNADAYSGYFLFDYWGQGTQVTVSS | low polyreactivity |
| QVQLVESGGGLVQAGGSLRLSCAASGSIFGLYVMGWDRQAPGKERELVATITSGGSTYYADSVKGRFTISRDNAKNTVYLQMNSLKPEDTAVYYCAADPQDAAYLKYLFYDYDYWGQGTQVTVSS | low polyreactivity |
| QVQLVESGGGLVQAGGSLRLSCAASGSIFGLYVMGWYRQAPGKERELVAAITGRGGSTYYADSVKGRFTISRDNAKNTVYLQMNSLKPEDTAVYYCAALRYTFAGRFDYWGQGTQVTVSS | high polyreactivity |
| QVQLVESGGGLVQAGGSLRLSCAASGSIFGNYAMGWYRQAPGKEREFVAAITWIGGSSYYADSVKGRFTISRDNAKNTVYLQMHSLKPEDTAVYYCARTSYARYRNGWTYDHWGQGTQVTVSS | low polyreactivity |
| QVQLVESGGGLVQAGGSLRLSCAASGSIFGNYAMGWYRQAPGKEREFVARISRGARTYYADSVKGRFTISRDNAKNTVYLQMNSLKPEDTAVYYCNARDYSVSYSVRFDYWGQGTQVTVSS | high polyreactivity |
| QVQLVESGGGLVQAGGSLRLSCAASGSIFGPNAMRWYRQAPGKERELVAAINGGTGTFYADSLKGRFTISRDNAKNTVYLQMNSLKPEDTAVYYCAADYGTHYFVRYYYWGQGTQVTVSS | high polyreactivity |
| QVQLVESGGGLVQAGGSLRLSCAASGSIFGPYAMGWYRQAPGKERELVATISSGGNTNYADSVKGRFTISRDNAKNTVYLQMNSLKPEDTAVYYCAADYTWSVYWWVDYWGQGTQVTVSS | low polyreactivity |
| QVQLVESGGGLVQAGGSLRLSCAASGSIFGPYAMGWYRQAPGKERELVATITTNGGSTYYADSVKGRFTISRDNAKNTVYLQMNSLKPEDTAVYYCATQHTDYVGAATTYNYWGQGTQVTVSS | low polyreactivity |
| QVQLVESGGGLVQAGGSLRLSCAASGSIFGRNAKGSYRQAPGKERELVAAITVSGGRTYYADSVKGRFTISRDNAKNTVYLQMNSLKPEDTAVYYCNKYPVYRAVYGGGYEYWGQGTQVTVSS | high polyreactivity |
| QVQLVESGGGLVQAGGSLRLSCAASGSIFGRNAMGLYRQAPGKERELVAAITDGGNTNYADSVKGRFTISRDNAKNTVYLQMNSLNPEDTAVYYCAARIPGTYGGRYGYDYWGQGTQVTVSS | low polyreactivity |
| QVQLVESGGGLVQAGGSLRLSCAASGSIFGRNAMGWYRPAPGKERELVAAISRRGGNTYYADSVKGRFTISRDNAKNTVYLQMNSLKPEDTAVYYCAAEVKTSYSYTHDGYWGQGTQVTVSS | high polyreactivity |

Reference: the nanobody polyreactivity screen of Harvey et al. (2022)
